Results taken from US20200338209A1, “ANTI-B7-H3 ANTIBODIES AND ANTIBODY DRUG CONJUGATES” (AbbVie Inc., priority 2016, published 2020).

Columns and labels:
[1] = target: T1, human B7-H3 (4Ig-B7-H3 variant) (Homo sapiens, UniProt Q5ZPR3); assay: Biacore T200 SPR binding kinetics, mAb capture, soluble ECD of human B7-H3; conditions: 1:1 binding model
T1 construct: His tag (6xHis) (C)
T1 sequence (Q5ZPR3 with tags, fused parts or gaps): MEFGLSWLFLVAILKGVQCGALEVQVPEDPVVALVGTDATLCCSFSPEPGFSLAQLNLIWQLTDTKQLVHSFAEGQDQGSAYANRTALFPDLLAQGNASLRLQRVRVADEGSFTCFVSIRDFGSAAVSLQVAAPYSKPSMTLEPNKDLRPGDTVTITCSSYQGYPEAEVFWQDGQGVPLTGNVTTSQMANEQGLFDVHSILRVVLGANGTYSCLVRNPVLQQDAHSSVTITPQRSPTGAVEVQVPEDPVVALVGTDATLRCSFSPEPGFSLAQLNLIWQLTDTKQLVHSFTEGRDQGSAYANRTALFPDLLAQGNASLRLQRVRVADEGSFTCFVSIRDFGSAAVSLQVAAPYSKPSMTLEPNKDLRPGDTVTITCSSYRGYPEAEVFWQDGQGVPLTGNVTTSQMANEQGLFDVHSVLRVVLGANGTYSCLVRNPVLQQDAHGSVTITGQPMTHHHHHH
Description: (§1) The binding affinity of the purified anti-B7-H3 monoclonal antibodies was determined by surface […]. […] The binding kinetics were derived from SPR measurements using a Biacore T200 instrument and a mAb capture approach (as described in the materials and methods below).
(§2) Biacore T200 SPR instruments were used to measure the binding kinetics of human B7-H3 (4Ig-B7-H3 variant) (analyte) binding to various mAbs (ligands). The assay format was Fc-based capture via immobilized anti-mouse (Fc) (Pierce 31170) or immobilized anti-human (Fc) (Pierce 31125). A standard amine coupling protocol was employed to immobilize the capture reagents via primary amines to the carboxy-methyl (CM) dextran surface of CM5 sensorchips (Biacore); capture antibodies were coupled to a level of approximately 5000RU. For binding kinetic measurements the assay buffer was HBS-EP+ (Biacore): 10 mM Hepes, pH7.4, 150 mM NaCl, 3 mM EDTA, 0.05% polysorbate 20. During the assay, all measurements were referenced against the capture surface alone. Each assay cycle consisted of the following steps: 1) Capture of ligand to approximately 50RU; 2) Analyte injection over both reference and test surface, 240 μL at 80 μL/min, after which the dissociation was monitored for 900 seconds at 80 μL/min; 3) Regeneration of capture surface with low pH glycine. For kinetic determinations analyte injections were 3-point, 9-fold dilution series of 900 nM, 100 nM and 11.11 nM, buffer only injections were included for secondary referencing. Data were processed and fit to a 1:1 binding model using Biacore T200 Evaluation Software to determine the binding kinetic rate constants, ka (on-rate) and kd (off-rate), and the equilibrium dissociation constant (affinity, KD).

cyno B7-H3 = assay: Biacore T200 SPR binding kinetics, mAb capture, soluble ECD of cyno B7-H3; design: species or system cynomolgus monkey; conditions: 1:1 binding model
Description: [The source words this procedure for another species and reports this species under the same test.] as §1, §2

[2] = Percentage aggregation of ADCs by size exclusion chromatography (SEC); assay type: physicochemical; conditions: humanized Ab3-CZ variants, Table 14
Description: The DAR and percentage aggregation of ADCs synthesized were determined by LC-MS and size exclusion chromatography (SEC), respectively.
Size exclusion chromatography was performed using a Shodex KW802.5 column in 0.2 M potassium phosphate pH 6.2 with 0.25 mM potassium chloride and 15% IPA at a flow rate of 0.75 ml/min. The peak area absorbance at 280 nm was determined for each of the high molecular weight and monomeric eluents by integration of the area under the curve. The % aggregate fraction of the conjugate sample was determined by dividing the peak area absorbance at 280 nm for the high molecular weight eluent by the sum of the peak area absorbances at […] of the high molecular weight and monomeric eluents multiplied by 100%.

Chain of cyno B7-H3 (as listed by the source): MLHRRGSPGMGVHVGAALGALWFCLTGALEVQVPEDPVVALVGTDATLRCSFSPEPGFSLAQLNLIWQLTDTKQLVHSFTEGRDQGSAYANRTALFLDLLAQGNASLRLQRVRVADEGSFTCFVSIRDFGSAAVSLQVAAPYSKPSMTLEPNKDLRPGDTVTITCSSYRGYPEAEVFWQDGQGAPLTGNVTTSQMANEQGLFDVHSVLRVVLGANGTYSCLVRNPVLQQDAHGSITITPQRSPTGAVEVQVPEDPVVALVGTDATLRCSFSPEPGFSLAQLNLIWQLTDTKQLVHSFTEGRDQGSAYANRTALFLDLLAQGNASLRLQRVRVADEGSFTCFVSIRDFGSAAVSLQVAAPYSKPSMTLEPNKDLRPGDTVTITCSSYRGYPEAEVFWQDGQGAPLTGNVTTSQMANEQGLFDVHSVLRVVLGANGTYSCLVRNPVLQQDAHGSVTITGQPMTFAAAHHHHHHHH

Molecule	ka (1/Ms) huB7-H3 [1] [M⁻¹ s⁻¹]	kd (1/s) huB7-H3 [1] [s⁻¹]	ka (1/Ms) cynoB7-H3 (cyno B7-H3) [M⁻¹ s⁻¹]	kd (1/s) cynoB7-H3 (cyno B7-H3) [s⁻¹]	KD (M) huB7-H3 [1]	KD (M) cynoB7-H3 (cyno B7-H3)	% agg by SEC [2] [%]
Ab17: mouse hybridoma derived anti-B7-H3 monoclonal antibodies (mAbs) (antibody, V domains shown) VH: EVKLVESGGGLVQPGGSLKLSCAASGFTFSSYIMSWVRQTPEKRLEWVASIVSSNITYYPDSMKGRFTISRDNARNILYLQMSSLKSEDTAMYYCARSGTRAWFAYWGQGTLVTVSA VL: DIVLTQSPASLAVSLGQRATISCRASKSVSTSAYSYMHWYQQKPGQPPKLLIYLASNLESGVPARFSGSGSGTDFTLNIHPVEEEDAATYYCQHSRELPYTFGGGTKLEIK	540000	1.9e-05	510000	1e-05			
Ab7: mouse hybridoma derived anti-B7-H3 monoclonal antibodies (mAbs) (antibody, V domains shown) VH: EVQLVESGENLVKPGGSLKLSCAASGFSFRGYGMSWVRQTPDKRLEWVAAISTGGNYTYYPDSVQGRFTISRDNANNTLYLQMSSLKSEDTAMYYCARRGGNYAGFAYWGQGTLVTVSA VL: DIQMTQSPASLSVSVGETVTITCRPSENIYSNLAWYQQKQGKSPQLLVYAATNLADGVPSRFSGSGSGTQYSLKINSLQSEDFGTYYCQHFWGTPFTFGSGTKLEIK					little observable binding	little observable binding	
huAb3v4-CZ (conjugate, drug conjugate CZ; Synthetic huAb3VH.1, huAb3v1, and huAb3v4 VH amino acid sequence; Synthetic huAb3VL.1b, huAb3v4, huAb3v5, and huAb3v6 VL amino acid sequence) VH: EVQLVQSGAEVKKPGSSVKVSCKASGYTFSSYWMHWVRQAPGQGLEWMGLIHPDSGSTNYNEMFKNRVTITADKSTSTAYMELSSLRSEDTAVYYCARGGRLYFDYWGQGTTVTVSS VL: DVVMTQSPLSLPVTPGEPASISCRSSQSLVHSNGDTYLRWYLQKPGQSPQLLIYKVSNRFSGVPDRFSGSGSGTDFTLKISRVEAEDVGVYYCSQSTHVPYTFGGGTKVEIK							3.1
Ab6: mouse hybridoma derived anti-B7-H3 monoclonal antibodies (mAbs) (antibody, V domains shown) VH: QVQLQQSGAELMKPGASVKISCKATGYTFSRYWIEWVKQRPGHGLEWIGEILPGSGSTNYNEKFKGKATFTADTSSNTAYMQVSSLTSEDSAVHYCARRGYGYVPYALDYWGQGTSVTVSS VL: EIQMTQTTSSLSASLGDRVTISCRASQDISNSLNWYQQKPDGTVNLLIYYTSRLYSGVPSRFSGSGSGTDYSLTISNLEQEDIATYFCQQGNTLPYTFGGGTKLEIK	12000	0.01	28000	0.012			
Ab11: murine anti-B7-H3 mAbs; mouse hybridoma derived (antibody, V domains shown) VH: EVKLVESGGGLVQPGGSLRLSCATSGFTFTNYYMSWVRQPPGKALEWLGFIRNKANDYTTEYSASVKGRFTISRDNSQSILYLQMNTLRAEDSATYYCARESPGNPFAYWGQGTLVTVSA VL: DIVMTQSPSSLTVTAGEKVTMTCKSSQSLLNSGTQKNFLTWYQQKPGQPPKLLIYWASTRESGVPDRFTGSGSGTDFTLTISSVQAEDLAVYFCQNDYIYPLTFGAGTKLELK	20000	0.00089	27000	7.2e-05			
